# From PMC3236213, “A Novel N-Acetylglutamate Synthase Architecture Revealed by the Crystal Structure of the Bifunctional Enzyme from Maricaulis maris” (PLoS ONE, 2011)
# Assays:
# mmNAGS/K [1] = target: T1, mmNAGS/K (Maricaulis maris, UniProt Q0ASS9); assay: NAGS assay, NAG quantified by LC-MS; type: biochemical; details: allosteric inhibitor of NAGS activity, not of NAGK activity; 2.5 mM AcCoA, 10 mM L-glutamate, 50 mM Tris-HCl pH 8.5; 293 K in Methods, 310 K in Figure 1 legend
# T1 construct: gene Mmar10_0365; full length (AAK domain 1-290, linker Gly291, NAT domain 292-441); E. coli Rosetta 2; homotetramer
# T1 sequence (Q0ASS9 1-441): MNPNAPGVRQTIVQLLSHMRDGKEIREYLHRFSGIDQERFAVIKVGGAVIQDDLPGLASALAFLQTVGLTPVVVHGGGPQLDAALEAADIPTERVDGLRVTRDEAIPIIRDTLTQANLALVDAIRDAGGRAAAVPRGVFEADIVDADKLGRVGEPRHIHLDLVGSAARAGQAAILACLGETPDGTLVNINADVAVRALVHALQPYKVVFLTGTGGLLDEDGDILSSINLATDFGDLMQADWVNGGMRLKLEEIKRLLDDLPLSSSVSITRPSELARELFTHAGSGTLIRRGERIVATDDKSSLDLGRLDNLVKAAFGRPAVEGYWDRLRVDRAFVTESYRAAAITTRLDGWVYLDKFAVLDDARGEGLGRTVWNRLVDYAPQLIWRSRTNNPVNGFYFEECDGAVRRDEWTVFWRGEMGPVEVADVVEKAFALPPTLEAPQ
# mmNAGS/K [2] = target: T1, mmNAGS/K; assay: X-ray crystallography (native, […] A); type: binding; details: modeled in residual density at NAT domain of subunits A and Y; 100 mM glutamate before crystallization; pH 6.5
# [3] = target: Maricaulis maris bifunctional N-acetylglutamate synthase/kinase (mmNAGS/K), wild type (Maricaulis maris MCS10); assay: crystal structure; orthorhombic form P2(1)2(1)2(1) of mmNAGS/K, four subunits per asymmetric unit; protein incubated beforehand with 25 mM CoA and 100 mM glutamate; native: 25% PEG3350, 200 mM NaCl, 100 mM Bis-Tris pH 6.5; Se-Met mutant: 25% PEG3350, 200 mM sodium malonate pH 7.0
# [4] = target: Maricaulis maris bifunctional N-acetylglutamate synthase/kinase (mmNAGS/K), wild type (Maricaulis maris MCS10); assay: crystal structure; trigonal form P3(1)21 of native mmNAGS/K, 4.3 A, two subunits per asymmetric unit, molecular replacement with the A-X dimer; 23% PEG400, 100 mM Bis-Tris pH 6.5, 1 mM 5-amino-2,4,6-triiodoisophthalic acid
# [5] = target: Maricaulis maris bifunctional N-acetylglutamate synthase/kinase (mmNAGS/K), wild type (Maricaulis maris MCS10); assay: cross-linking; 0.15 ug protein with 0.25 ug dimethyl suberimidate in 50 ul of 200 mM triethanolamine pH 8.25, three hours at 298 K; SDS-PAGE (NuPAGE 4-12% Bis-Tris), Coomassie blue
# [6] = target: Se-Met substituted mmNAGS/K triple mutant (I106M, I294M, L376M) (Maricaulis maris MCS10); assay: crystal structure; orthorhombic form P2(1)2(1)2(1) of mmNAGS/K, four subunits per asymmetric unit; protein incubated beforehand with 25 mM CoA and 100 mM glutamate; native: 25% PEG3350, 200 mM NaCl, 100 mM Bis-Tris pH 6.5; Se-Met mutant: 25% PEG3350, 200 mM sodium malonate pH 7.0
# [7] = target: Se-Met substituted xcNAGS/K (hexagonal crystal form) (Xanthomonas campestris); assay: crystal structure; hexagonal form P6(2)22 of Se-Met xcNAGS/K, one subunit per asymmetric unit, molecular replacement with mmNAGS/K; tetramer made by crystallographic symmetry
# [8] = target: Xanthomonas campestris bifunctional N-acetylglutamate synthase/kinase (xcNAGS/K), recombinant (Xanthomonas campestris); assay: cross-linking; 0.15 ug protein with 0.25 ug dimethyl suberimidate in 50 ul of 200 mM triethanolamine pH 8.25, three hours at 298 K; SDS-PAGE (NuPAGE 4-12% Bis-Tris), Coomassie blue
compound,measurement,setting,value
N=C(N)NCCC[C@H](N)C(=O)O [L-arginine],fold inhibition of NAGS activity at 1.0 mM,mmNAGS/K [1],14 fold
N[C@@H](CCC(=O)O)C(=O)O [L-glutamate],"X-ray crystallography (native, 3.1 A)",mmNAGS/K [2],residual electron density in subunits A and Y at this site that can be modeled as L-glutamate
"Maricaulis maris bifunctional N-acetylglutamate synthase/kinase (mmNAGS/K), wild type (enzyme)",stoichiometry N,[3],4
same,stoichiometry N,[4],4
same,stoichiometry N,[5],4
"Se-Met substituted mmNAGS/K triple mutant (I106M, I294M, L376M) (enzyme)",stoichiometry N,[6],4
Se-Met substituted xcNAGS/K (hexagonal crystal form) (enzyme),stoichiometry N,[7],4
"Xanthomonas campestris bifunctional N-acetylglutamate synthase/kinase (xcNAGS/K), recombinant (enzyme)",stoichiometry N,[8],4
